Test results taken from US20250290928A1, “METHOD, KIT AND DEVICE FOR DETECTING EXTRACELLULAR VESICLES” (priority 2022, published 2025).
*: point of attachment. 5FAM = O=C1OC2(c3ccc(O)cc3Oc3cc(O)ccc32)c2ccc(C(=O)*)cc21; TQ2 = quencher

Columns and labels:
[1] = target: T1, MMP14 in the MDA-MB-231-derived extracellular vesicles (Homo sapiens, UniProt P50281); experiment: Evaluation of MMP14 activity of MDA-MB-231-derived extracellular vesicles with 96-well plate; format: biochemical; conditions: for reaction rate per 1 μg/mL of extracellular vesicles: within 1 hour
T1 construct: in terms of intact MMP14 with a molecular weight of 70 kDa
Experimental: A relative fluorescence unit difference ΔRFU was calculated by subtracting the measured value of the sample for BG measurement from the measured value of each of the samples.
The concentration of the solution is 41.7 μg/mL. The concentration of the solution was set to x1, and 2-fold serial dilution was performed to prepare standard samples with six concentrations.
50 μL of the MMP14 detection solution was added to 50 μL of each of the samples, a reaction was performed at 37° C., and MMP14 activity was evaluated.
The concentration of the solution is 10 μg/mL.
50 μL of each of the MMP14 detection solutions was added to 50 μL of each of the samples, a reaction was performed at 37° C., and MMP14 activity was evaluated. […]
The concentration of the solution is 20 μg/mL. The concentration of the solution was set to x1, and 3-fold serial dilution was performed to prepare standard samples with three concentrations.
The concentration of the solution is 8 μg/mL.
50 μL of each of the MMP14 detection solutions was added to 50 μL of the sample, a reaction was performed at 37° C., and MMP14 activity was evaluated. […]
50 μL of the MMP14 detection solution was added to 50 μL of each of the samples, a reaction was performed at 30° C., and MMP14 activity was evaluated.
The MMP14 activity of the extracellular vesicles was evaluated with a 96-well plate (137101). A fluorescence intensity was measured with a fluorescence plate reader (Synergy) at 30° C. every 5 minutes for 2 hours. For measurement wavelengths, an excitation wavelength of 545±20 nm and a fluorescence wavelength of 588±20 nm were used. A relative fluorescence unit difference (ΔRFU) was calculated by subtracting the measured value of the sample for BG measurement from the measured value of each of the samples.
50 μL of each of the MMP14 detection solutions was added to 50 μL of each of the samples, a reaction was performed at 30° C., and MMP14 activity was evaluated.

[2] = target: T1, MMP14 in the MDA-MB-231-derived extracellular vesicles; experiment: Digital detection of MDA-MB-231-derived extracellular vesicles through MMP14 activity in wells (microcompartments); format: biochemical
Experimental: The concentration of the solution is 6.7 μg/mL.
100 μL of the MMP14 detection solution was added to 100 μL of the sample to provide a reaction solution for wells. […] 100 μL of 200 μL of the prepared reaction solution for wells was used in the measurement of MMP14 activity with a 96-well plate.
Next, the wells were filled with the reaction solution by leaving the well array 200 to stand under reduced pressure to degas the space 205. After that, the space 205 was fed with hydrophobic solvents to be sealed. Fluorinated oils AsahiKlin AE-3000 (manufactured by AGC Inc.) and Fomblin Y-25 (manufactured by Solvay S.A.) were used as the hydrophobic solvents. A fluorinated oil Simoa (trademark) SR-X Sealing Oil: 102767 (manufactured by Quanterix Corporation) was further used as another hydrophobic solvent.
Well diameter: 4.25 μm Well depth: 3.25 μm Well capacity: 50 fL Number of wells in array: 239,000 Array range: 3 mm×4 mm
The concentration of the solution is 20 μg/mL. […] The concentration of the solution was set to x1, and 10-fold serial dilution was performed to prepare standard samples with five concentrations.
Next, the wells were filled with the reaction solution by leaving the well array 200 to stand under reduced pressure to degas the space 205. After that, the space 205 was fed with hydrophobic solvents to be sealed.
The concentration of the solution is 20 μg/mL. […] The concentration of the solution was set to x1, and 3-fold serial dilution was performed to prepare standard samples with three concentrations.
The concentration of the solution is 20 μg/mL. […] The concentration of the solution was set to x1, and 2-fold serial dilution was performed to prepare standard samples with four concentrations.
The concentration of the solution is 5 μg/mL.
50 μL of the MMP14 detection solution was added to 50 μL of the sample to provide a reaction solution for wells.
50 μL of each of the MMP14 detection solutions was added to 50 μL of the sample to provide a reaction solution for wells.
The concentration of the solution is 6.7 µg/mL.

[3] = Example 9, EV 4 μg/mL, buffer (3), 37° C., Lineweaver-Burk plots
[4] = Example 20, 37° C., 5 h, BG, EV 0 (free of extracellular vesicles, pseudopositive)
[5] = Example 20, 37° C., 5 h, ΔBG Absent, EV 0.0001 a.u.
[6] = Example 20, 37° C., 5 h, ΔBG Absent, EV 0.001 a.u.
[7] = Example 20, 37° C., 5 h, ΔBG Absent, EV 0.01 a.u.
[8] = Example 20, 37° C., 5 h, ΔBG Absent, EV 0.1 a.u.
[9] = Example 20, 37° C., 5 h, ΔBG Absent, EV 1 a.u. (x1=10 μg/mL)
[10] = Example 20, 37° C., 5 h, ΔBG Present (positives at EV 0 subtracted), EV 1 a.u.
[11] = Example 20, 37° C., 5 h, ΔBG Present, EV 0.001 a.u.
[12] = Example 20, 37° C., 5 h, ΔBG Present, EV 0.01 a.u.
[13] = Example 20, 37° C., 5 h, ΔBG Present, EV 0.1 a.u.
[14] = Example 22, buffer (2), 37° C., 1 h, EV 0 (free of extracellular vesicles)
[15] = Example 22, buffer (2), 37° C., 1 h, EV 0.111 a.u.
[16] = Example 22, buffer (2), 37° C., 1 h, EV 0.333 a.u.
[17] = Example 22, buffer (2), 37° C., 1 h, EV 1 a.u. (x1=10 μg/mL)
[18] = Example 22, buffer (2), 37° C., 2 h, EV 0 (free of extracellular vesicles)
[19] = Example 22, buffer (2), 37° C., 2 h, EV 0.111 a.u.
[20] = Example 22, buffer (2), 37° C., 2 h, EV 0.333 a.u.
[21] = Example 22, buffer (2), 37° C., 2 h, EV 1 a.u. (x1=10 μg/mL)

With “[5-FAM]GRIGFLRTAK(TQ2)[OH] (5FAM-GRIGFLRTAK(TQ2)-OH) [Custom #1]” the “increase in fluorescence intensity (temporal change)” value ([1]; Example 4, EV 5 μg/mL, reporter 5 μM, 37° C., Assay buffer (Component D)) was “more significant than that from SensoLyte 520 MMP-14”, the “reaction rate per 1 μg/mL of extracellular vesicles” value ([1]; Example 5, Assay buffer (Component D) of SensoLyte 520 MMP-14 Assay Kit, reporter 5 μM, 37° C.) was 101.5 ΔRFU/min and the “reaction rate per 1 μg/mL of extracellular vesicles” value ([1]; Example 8, buffer (2), reporter 5 μM, 37° C.) was 198 ΔRFU/min. The Km [1, 3] was 0.443 µM, the Vmax [1, 3] was 1,278.77 ΔRFU/min and the “cleaved more easily than Custom #2” value ([1]; Example 9 reaction conditions) was “about 2.5 times”. The “fluorescence intensity at the same extracellular vesicle concentration” value ([1]; Example 10, buffer (3), reporter 5 μM, 37° C.) was “higher than the fluorescence intensity from Custom #2”, the “extracellular vesicle concentration at which MMP14 activity was able to be detected with a 96-well plate” value ([1]; buffer (4), reporter 5 μM, 37° C.) was no less than 1 µg/mL and the “Expected value λ” value [2, 4] was 0.000553. The Number of positives [2, 4] was 32, the Positive ratio [2, 4] was 0.000553 and the “Expected value λ” value [2, 5] was 0.000535. The Number of positives [2, 5] was 31, the Positive ratio [2, 5] was 0.000534 and the “Expected value λ” value [2, 6] was 0.00285. The Number of positives [2, 6] was 165, the Positive ratio [2, 6] was 0.00285 and the “Expected value λ” value [2, 7] was 0.0115. The Number of positives [2, 7] was 661, the Positive ratio [2, 7] was 0.0114 and the “Expected value λ” value [2, 8] was 0.137. For the same substance, the Number of positives [2, 8] was 7,404, the Positive ratio [2, 8] was 0.128 and the “Expected value λ” value [2, 9] was 1.16. The Number of positives [2, 9] was 39,601, the Positive ratio [2, 9] was 0.686 and the “Expected value λ” value [2, 10] was 1.16. For the same substance, the Number of positives [2, 10] was 39,569, the Positive ratio [2, 10] was 0.685 and the Number of positives ([2]; Example 20, 37° C., 5 h, ΔBG Present, EV 0.0001 a.u.) was −1. For the same substance, the “Expected value λ” value [2, 11] was 0.0023, the Number of positives [2, 11] was 133 and the Positive ratio [2, 11] was 0.0023. For the same substance, the “Expected value λ” value [2, 12] was 0.0109, the Number of positives [2, 12] was 629 and the Positive ratio [2, 12] was 0.0109. The “Expected value λ” value [2, 13] was 0.136, the Number of positives [2, 13] was 7,372 and the Positive ratio [2, 13] was 0.128. For the same substance, the “λ at x1 in an approximation with BG correction” value ([2]; Example 20, 5 h) was 1.07, the “λ at x1 in an approximation without BG correction” value ([2]; Example 20, 5 h) was 1.03 and the Extracellular vesicle concentration ([2]; Example 20, with BG correction) was 2.1e+10 mL⁻¹. For the same substance, the “extracellular vesicles in which MMP14 activity can be detected, contained in 1 μL of the extracellular vesicles (50 μg of protein in 50 μL of PBS)” value ([2]; Example 20, with BG correction) was 2.1×10^9, the Extracellular vesicle concentration ([2]; Example 20, without BG correction) was 2.1×10^9 /μg of protein and the Extracellular vesicle concentration ([2]; Example 20, without BG correction, reaction solution 10 μg of protein/mL, 50 fL) was 2.1e+10 mL⁻¹. The “expected value λ at x1 (power approximation)” value ([2]; Example 22, after 1 hour) was 0.661, the “expected value λ at x1 (power approximation)” value ([2]; Example 22, after 2 hours) was 0.7145 and the “Expected value λ” value [2, 14] was 0.000725. The Number of positives [2, 14] was 21, the Positive ratio [2, 14] was 0.000725 and the “Expected value λ” value [2, 15] was 0.0784. For the same substance, the Number of positives [2, 15] was 2,186, the Positive ratio [2, 15] was 0.0754 and the “Expected value λ” value [2, 16] was 0.237. For the same substance, the Number of positives [2, 16] was 6,117, the Positive ratio [2, 16] was 0.211 and the “Expected value λ” value [2, 17] was 0.65. For the same substance, the Number of positives [2, 17] was 13,855, the Positive ratio [2, 17] was 0.478 and the “Expected value λ” value [2, 18] was 0.000794. For the same substance, the Number of positives [2, 18] was 23, the Positive ratio [2, 18] was 0.000794 and the “Expected value λ” value [2, 19] was 0.0822. The Number of positives [2, 19] was 2,287, the Positive ratio [2, 19] was 0.0789 and the “Expected value λ” value [2, 20] was 0.238. The Number of positives [2, 20] was 6,143, the Positive ratio [2, 20] was 0.212 and the “Expected value λ” value [2, 21] was 0.719. The Number of positives [2, 21] was 14,860, the Positive ratio [2, 21] was 0.513 and the “extracellular vesicle concentration at which MMP14 activity was able to be detected in the microcompartments” value ([2]; Simoa Discs, buffer (4), reporter 5 μM, 37° C.) was no less than 10 ng/mL.
